# Source: publication PMC11357992, “Non-invasive mapping of systemic neutrophil dynamics upon cardiovascular injury” (Nature Cardiovascular Research, 2023)
# “And” between values parts separate entries of the source, which are not always exact repeats. Identical values can stand only once. Where no end group is shown, it is not given here. Side-chain parts run from the residue outwards. rhodamine‑labelled PEGylated perfluoro‑15‑crown‑5 ether nanoemulsion = not defined here; carboxyfluorescein = N-terminal fluorescence label (CF)
# Columns and labels:
# [1] = 19F content of PFCs by 19F MRI; type: physicochemical; conditions: panel B raw data, single replicates #1-#3
# Method: Extended Data Fig. 8 Physicochemical properties and cellular uptake of ^hNPPFCs. a, Cellular uptake of ^hNPPFCs by human monocyte subsets and neutrophils: Human immune cells isolated from the blood of healthy volunteers were incubated with ^hNPPFCs. Subsequently, cells were stained with CD11b, CD14 and CD16 to differentiate between neutrophils (red), classical monocytes (gray) and non-classical monocytes (blue) and the cells were analyzed by flow cytometry. The cellular uptake of ^hNPPFCs was determined under unstimulated conditions (top) and after treatment with 1 µg/ml LPS (bottom). b, Physicochemical properties of the generated nanotracers: Characterization of size, size distribution and ζ potential of ^MalPFCs and targeting PFCs (^hNPPFCs, ^ConPFCs) by dynamic light scattering (DLS). The rhodamine fluorescence signal of the PCS was determined by IVIS imaging and the ^19F content by ^19F MRI. c-e, Cryo transmission electron microscopy of the generated nanotracers: c, Cryo transmission electron microscopy (cryo-TEM) of ^hNPPFCs and ^ConPFCs. Graphs: The diameter of the PFCs was determined manually from three images categorized into 25 nm groups. […] The number of PFCs and liposomes was manually determined (n = 4/5 images). […]
# [2] = Cryo-transmission electron microscopy of PFCs (diameter, liposomes); type: physicochemical; set-up: key: % of PFCs per 25 nm diameter class in cryo-TEM images; conditions: cryo-TEM size distribution; panel C raw data, single replicates #1-#3
# Method: PFCs were diluted with sample buffer to minimize particle aggregation and therefore enable proper size measurements, which were carried out as previously described.
# Extended Data Fig. 8 Physicochemical properties and cellular uptake of ^hNPPFCs. a, Cellular uptake of ^hNPPFCs by human monocyte subsets and neutrophils: Human immune cells isolated from the blood of healthy volunteers were incubated with ^hNPPFCs. Subsequently, cells were stained with CD11b, CD14 and CD16 to differentiate between neutrophils (red), classical monocytes (gray) and non-classical monocytes (blue) and the cells were analyzed by flow cytometry. The cellular uptake of ^hNPPFCs was determined under unstimulated conditions (top) and after treatment with 1 µg/ml LPS (bottom). b, Physicochemical properties of the generated nanotracers: Characterization of size, size distribution and ζ potential of ^MalPFCs and targeting PFCs (^hNPPFCs, ^ConPFCs) by dynamic light scattering (DLS). The rhodamine fluorescence signal of the PCS was determined by IVIS imaging and the ^19F content by ^19F MRI. c-e, Cryo transmission electron microscopy of the generated nanotracers: c, Cryo transmission electron microscopy (cryo-TEM) of ^hNPPFCs and ^ConPFCs. Graphs: The diameter of the PFCs was determined manually from three images categorized into 25 nm groups. […] Data are derived from three images for ^hNPPFCs and ^ConPFCs each. d, Box plot (box and whiskers; min to max) of the diameter of ^ConPFCs/^hNPPFCs calculated from cryo-TEM images. e, Relative amount of liposomes (%) in individual cryo-TEM images. The number of PFCs and liposomes was manually determined (n = 4/5 images). Red arrows in the cryo-TEM images indicate liposomes. Data are mean values ± SD of n = 5-6 (a), n = 3-6 (b), n = 3 (c), n = 3 (d) and n = 6 (e) independent experiments; *** = p < 0.001, verified by one-way ANOVA (a). Source data
# [3] = tested on: neutrophils, monocytes and lymphocytes from STEMI blood samples; assay: Uptake of hNPPFCs/ConPFCs by immune cells from patients with STEMI, flow cytometry; type: cell-based, human
# Method: In total, blood samples from 17 patients with STEMI were used (5 female, 12 male; aged 66.9 ± 13.6 years; troponin T, 3,398 ± 3,520 ng l^−1; creatine kinase, 933.4 ± 685.8 U l^−1; lactate dehydrogenase, 547.8 ± 259.9 U l^−1). Samples were analyzed 24 h after MI. Samples from the oral cavity of patients with pericoronitis (n = 6; 4 female, 2 male; 34.1 ± 21.7 years) and explanted human hearts (n = 3; 1 female, 2 male; 41.6 ± 18.2 years) were processed directly after surgery.
# Blood was collected from the vena brachialis, and erythrocytes were lysed as described above. After 10 min of incubation, samples were centrifuged at 350g for 10 min at 20 °C. For isolation of a purified neutrophil fraction, density gradient centrifugation was performed. Five milliliters of Ficoll 1.077 (Sigma-Aldrich) was layered on 5 ml Ficoll 1.119 (Sigma-Aldrich), and 20 ml of whole blood diluted 1:2 with PBS was carefully layered on the Ficoll 1.077. Samples were centrifuged at 350g for 20 min with low acceleration and brake. The neutrophil layer was isolated by careful aspiration and washed with PBS. Isolated cells were resuspended in MACS buffer.
# A total of 1 × 10^6 cells were incubated with 10 µl of the emulsion over a period of 80 min at 37 °C. At distinct time points, 50 µl of the samples were transferred into 2 ml of ice-cold MACS buffer and analyzed for rhodamine fluorescence by flow cytometry.
# [4] = tested on: murine neutrophils; assay: Migration of murine neutrophils into Matrigel/LPS plug after mNPPFC injection; type: in vivo, mouse; conditions: in the presence of the targeting PFCs
# Method: […] per kg BW ^mNPPFCs or saline were injected i.v., and, after 1 h, LPS-doped Matrigel was implanted s.c. into the neck of mice. After 2 h, the Matrigel plug was excised, and infiltrated neutrophils were isolated and stained with anti-CD11b and anti-Ly6G antibodies for flow cytometry.
# A total of 1 × 10^6 isolated human neutrophils were incubated with or without 50 µl ^hNPPFCs for 1 h at 37 °C in 1 ml DMEM. After washing with DMEM, 1 × 10^5 of these cells were placed in a Boyden chamber containing 200 µl DMEM. The lower part of the chamber contained 100 ng ml^−1 IL-8 in 1 ml DMEM. After 1 h in an incubator, the flow through was collected, and the number of neutrophils was counted by flow cytometry. Murine neutrophils were isolated from Matrigel–LPS plugs and stained for Ly6G. Afterward, cells were washed twice, and the number of neutrophils was determined by flow cytometry.
# Extended Data Fig. 9 Impact of ^mNPPFCs on murine neutrophils. a, Differentially expressed genes (DEGs) identified by bulk RNA sequencing of murine blood neutrophils after intravenous injection of ^mNPPFCs, ^ConPFCs or NaCl (Ctrl) as control. […] In total 25655 RNA transcripts were analyzed. b, Cell surface expression of CD11b, CD62L, CD63 on blood derived murine neutrophils after intravenous application of NaCl (Ctrl) or ^mNPPFCs. […]
Substance,19F amount [1],share of particles in size class 0-25 [2],share of particles in size class 25-50 [2],share of particles in size class 50-75 [2],share of particles in size class 75-100 [2],share of particles in size class 100-125 [2],share of particles in size class 125-150 [2],share of particles in size class 150-175 [2],share of particles in size class 175-200 [2],"uptake by neutrophils, STEMI - hNPPFCs, raw data ([3]; STEMI patients, time 0, single samples #1-#5)","cellular uptake by neutrophils from patients with STEMI versus healthy volunteers ([3]; blood obtained within the first 24 h after MI, flow cytometry and 19F MRI)",migration of murine neutrophils [4]
hNPPFCs: PEGylated rhodamine-labeled perfluorocarbon nanoemulsion coupled with human neutrophil-specific peptide hNP (carboxyfluorescein-DLVTSKLQVGGGC; also: C-terminal Cys coupled via maleimide-PEG2000-DSPE to rhodamine-labelled perfluorocarbon nanoemulsion),6.421 and 6.014 and 6.958,0,26.2295 and 23.5714 and 28.5714,45.9016 and 51.4286 and 42.0635,21.3115 and 20 and 23.8095,6.557 and 5 and 5.556,0,0,0,84.1 and 69.4 and 87.5 and 76.7 and 84.9,substantially stronger cellular uptake,–
mNPPFCs: PEGylated rhodamine-labeled perfluoro-15-crown-5 ether nanoemulsion (maleimide PFCs) coupled with murine neutrophil-specific peptide mNP (carboxyfluorescein-DFYKPMPNLRITGGGC([maleimide‑PEG2000‑DSPE-rhodamine‑labelled PEGylated perfluoro‑15‑crown‑5 ether nanoemulsion]); reading uncertain; also: printed as DFYKPMPNLRIT-GGG-C),–,–,–,–,–,–,–,–,–,–,–,unaltered
